In US6534267 (dated 2003):

Target: the molecule itself
Assay: gel filtration of purified native Smac (self-association)

B1: 25-kDa Smac (second mitochondria-derived activator of caspase), native mature protein from HeLa cells (other)
chain: AVPIAQKSEPHSLSSEALMRRAVSLVTDSTSTFLSQTTYALIEAITEYTKAVYTLTSLYRQYTSLLGKMNSEEEDEVWQVIIGARAEMTSKHQEYLKLETTWMTAVGLSEMAAEAAYQTGADQASITARNHIQLVKLQVEEVHQLSRKAETKLAEAQIEELRQKTQEEGEERAESEQEAYLRED
notes: The HeLa protein is also about 25 kDa; Gel filtration points to a homotetramer; also called 25-kDa protein; native Smac
Does B1 bind?
Result: binds
